{"source": "patent US7459544", "about": "(GENETICS INSTITUTE, dated 2008)", "binders": {"B1": {"name": "human B7-2 immunoglobulin fusion protein (hB7-2Ig, full extracellular domain) (Fc fusion)", "chain": "APLKIQAYFNETADLPCQFANSQNQSLSELVVFWQDQENLVLNEVYLGKEKFDSVHSKYMGRTSFDSDSWTLRLHNLQIKDKGLYQCIIHHKKPTGMIRIHQMNSELSVLANFSQPEIVPISNITENVYINLTCSSIHGYPEPKKMSVLLRTKNSTIEYDGIMQKSQDNVTELYDVSISLSVSFPDVTSNMTIFCILETDKTRLLSSPFSIELEDPQPPPD", "modifications": "Biotinylated or 125I-labelled in some assays.", "notes": "Coated on plates, biotinylated or 125I-labelled depending on the assay; also called human B7.2-Ig; full-length B7-2; not shown: Junction residue Q and the hinge-CH2-CH3 of human IgG1 or IgG4 (hinge Cys to Ser, optionally CH2 mutated)"}}, "target": "Human CTLA4 fusion protein (CTLA4Ig) (human, UniProt P16410 36-161)", "sequence (P16410 36-161)": "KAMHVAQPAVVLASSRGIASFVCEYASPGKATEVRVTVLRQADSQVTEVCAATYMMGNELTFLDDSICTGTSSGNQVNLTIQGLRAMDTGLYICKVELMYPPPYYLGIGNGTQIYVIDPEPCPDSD", "experiment": "solid phase competition on immobilized CTLA4-Ig; reference B7-1Ig", "data": [{"binder": "B1", "values": [{"measurement": "fold lower avidity than B7-1", "value": "~2", "unit": "fold"}]}]}
